Data reported in patent US20250388703A1.

How the values were obtained:
[1] = target: Human CD3 E/D dimer (heterodimeric construct of human CD3 epsilon and CD3 delta domains, ACROBiosystems CDD-H52Wa) (human) (UniProt P07766); experiment: BLI, CD3E/D-His on anti-His probes, 1:1 fit
[2] = target: Human CD3 E/D dimer (heterodimeric construct of human CD3 epsilon and CD3 delta domains, ACROBiosystems CDD-H52Wa) (human) (UniProt P07766); experiment: column 'CD3 affinity (nM)'; assay not named on the sheet; BLI on human CD3 epsilon/delta-His per Example 1
[3] = target: DLL3 (human) (UniProt Q9NYJ7); experiment: not named on the sheet; Example 1 describes flow cytometry on CHO-K1 cells over-expressing DLL3
Sequence of DLL3 (human) (Q9NYJ7 27-492 limits assumed): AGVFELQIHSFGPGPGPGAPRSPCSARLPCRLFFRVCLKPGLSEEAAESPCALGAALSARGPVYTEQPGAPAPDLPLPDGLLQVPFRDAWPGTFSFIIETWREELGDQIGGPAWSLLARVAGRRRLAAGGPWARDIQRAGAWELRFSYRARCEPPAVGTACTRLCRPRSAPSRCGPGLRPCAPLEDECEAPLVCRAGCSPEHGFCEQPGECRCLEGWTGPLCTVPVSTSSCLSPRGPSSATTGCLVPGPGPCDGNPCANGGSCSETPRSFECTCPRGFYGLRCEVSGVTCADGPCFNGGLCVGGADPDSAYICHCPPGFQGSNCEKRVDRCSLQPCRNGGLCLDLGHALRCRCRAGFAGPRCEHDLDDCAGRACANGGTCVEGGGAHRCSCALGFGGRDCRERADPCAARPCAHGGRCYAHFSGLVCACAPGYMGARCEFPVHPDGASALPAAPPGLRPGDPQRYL

[4] = target: Human CD28-his (ACROBiosystems CD8-H52H3) (human) (UniProt P10747); experiment: column 'CD28 affinity (nM)'; assay not named on the sheet; BLI on human CD28-His per Example 1

Sequence of Human CD3 E/D dimer (heterodimeric construct of human CD3 epsilon and CD3 delta domains, ACROBiosystems CDD-H52Wa) (human) (P07766 23-126 limits assumed, stated change not applied, chain 1 of 2): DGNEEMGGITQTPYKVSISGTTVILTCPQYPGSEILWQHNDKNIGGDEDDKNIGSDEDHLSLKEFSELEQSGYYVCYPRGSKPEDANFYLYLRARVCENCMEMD
Sequence of Human CD3 E/D dimer (heterodimeric construct of human CD3 epsilon and CD3 delta domains, ACROBiosystems CDD-H52Wa) (human) (P04234 22-105 limits assumed, stated change not applied, chain 2 of 2, further chain): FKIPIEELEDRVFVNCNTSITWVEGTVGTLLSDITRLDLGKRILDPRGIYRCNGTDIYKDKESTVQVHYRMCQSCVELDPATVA

Substance | Fold reduction in CD3 affinity compared to Tarlatamab [1] [fold] | Kd [1] [nM] | Kd [2] [nM] | DLL3 affinity [3] [nM] | Kd [4] [nM]
AMG757 (Tarlatamab, BM) (bispecific antibody) | 1 | 2 | 3 | 0.2 | –
328_BM (SAR443216) | – | – | 22.9 | – | 4.32
